± gives the uncertainty stated by the source.
B1: Homeobox protein cut-like 1, residues 941 to 1008; numbered along this chain, P39880 (parent)
chain: QEVDTIELTRQVKEKLAKNGICQRIFGEKVLGLSQGSVSDMLSRPKPWSKLTQKGREPFIRMQLWLNG

Variants of: B1
Experiment: abundance fitness (aPCA) (normalised: wild type 0, dead -1); higher = more abundant; growth selection in yeast, the domain comes from the species named
Details: Homo sapiens

Variant | abundance fitness
QAVDTIELTRQVKEKLAKNGICQRIFGEKVLGLSQGSVSDMLSRPKPWSKLTQKGREPFIRMQLWLNG [E2A] | -0.273 ± 0.027
QYVDTIELTRQVKEKLAKNGICQRIFGEKVLGLSQGSVSDMLSRPKPWSKLTQKGREPFIRMQLWLNG [E2Y] | -0.329 ± 0.03
QMVDTIELTRQVKEKLAKNGICQRIFGEKVLGLSQGSVSDMLSRPKPWSKLTQKGREPFIRMQLWLNG [E2M] | -0.09 ± 0.029
QKVDTIELTRQVKEKLAKNGICQRIFGEKVLGLSQGSVSDMLSRPKPWSKLTQKGREPFIRMQLWLNG [E2K] | -0.074 ± 0.029
QCVDTIELTRQVKEKLAKNGICQRIFGEKVLGLSQGSVSDMLSRPKPWSKLTQKGREPFIRMQLWLNG [E2C] | -0.375 ± 0.033
QIVDTIELTRQVKEKLAKNGICQRIFGEKVLGLSQGSVSDMLSRPKPWSKLTQKGREPFIRMQLWLNG [E2I] | -0.085 ± 0.031
QDVDTIELTRQVKEKLAKNGICQRIFGEKVLGLSQGSVSDMLSRPKPWSKLTQKGREPFIRMQLWLNG [E2D] | -0.283 ± 0.031
QVVDTIELTRQVKEKLAKNGICQRIFGEKVLGLSQGSVSDMLSRPKPWSKLTQKGREPFIRMQLWLNG [E2V] | -0.16 ± 0.026
QGVDTIELTRQVKEKLAKNGICQRIFGEKVLGLSQGSVSDMLSRPKPWSKLTQKGREPFIRMQLWLNG [E2G] | -0.081 ± 0.027
QPVDTIELTRQVKEKLAKNGICQRIFGEKVLGLSQGSVSDMLSRPKPWSKLTQKGREPFIRMQLWLNG [E2P] | -0.206 ± 0.028
QWVDTIELTRQVKEKLAKNGICQRIFGEKVLGLSQGSVSDMLSRPKPWSKLTQKGREPFIRMQLWLNG [E2W] | -0.738 ± 0.033
QNVDTIELTRQVKEKLAKNGICQRIFGEKVLGLSQGSVSDMLSRPKPWSKLTQKGREPFIRMQLWLNG [E2N] | -0.227 ± 0.031
QSVDTIELTRQVKEKLAKNGICQRIFGEKVLGLSQGSVSDMLSRPKPWSKLTQKGREPFIRMQLWLNG [E2S] | -0.135 ± 0.027
QQVDTIELTRQVKEKLAKNGICQRIFGEKVLGLSQGSVSDMLSRPKPWSKLTQKGREPFIRMQLWLNG [E2Q] | -0.093 ± 0.029
QLVDTIELTRQVKEKLAKNGICQRIFGEKVLGLSQGSVSDMLSRPKPWSKLTQKGREPFIRMQLWLNG [E2L] | -0.376 ± 0.026
QRVDTIELTRQVKEKLAKNGICQRIFGEKVLGLSQGSVSDMLSRPKPWSKLTQKGREPFIRMQLWLNG [E2R] | -0.157 ± 0.027

Variant | abundance fitness
QHVDTIELTRQVKEKLAKNGICQRIFGEKVLGLSQGSVSDMLSRPKPWSKLTQKGREPFIRMQLWLNG [E2H] | -0.317 ± 0.032
QEPDTIELTRQVKEKLAKNGICQRIFGEKVLGLSQGSVSDMLSRPKPWSKLTQKGREPFIRMQLWLNG [V3P] | -0.111 ± 0.07
QENDTIELTRQVKEKLAKNGICQRIFGEKVLGLSQGSVSDMLSRPKPWSKLTQKGREPFIRMQLWLNG [V3N] | -0.335 ± 0.1
QEYDTIELTRQVKEKLAKNGICQRIFGEKVLGLSQGSVSDMLSRPKPWSKLTQKGREPFIRMQLWLNG [V3Y] | -0.227 ± 0.12
QESDTIELTRQVKEKLAKNGICQRIFGEKVLGLSQGSVSDMLSRPKPWSKLTQKGREPFIRMQLWLNG [V3S] | -0.067 ± 0.058
QEGDTIELTRQVKEKLAKNGICQRIFGEKVLGLSQGSVSDMLSRPKPWSKLTQKGREPFIRMQLWLNG [V3G] | -0.154 ± 0.058
QERDTIELTRQVKEKLAKNGICQRIFGEKVLGLSQGSVSDMLSRPKPWSKLTQKGREPFIRMQLWLNG [V3R] | -0.051 ± 0.061
QEMDTIELTRQVKEKLAKNGICQRIFGEKVLGLSQGSVSDMLSRPKPWSKLTQKGREPFIRMQLWLNG [V3M] | -0.045 ± 0.074
QELDTIELTRQVKEKLAKNGICQRIFGEKVLGLSQGSVSDMLSRPKPWSKLTQKGREPFIRMQLWLNG [V3L] | 0.008 ± 0.052
QECDTIELTRQVKEKLAKNGICQRIFGEKVLGLSQGSVSDMLSRPKPWSKLTQKGREPFIRMQLWLNG [V3C] | -0.486 ± 0.17
QEADTIELTRQVKEKLAKNGICQRIFGEKVLGLSQGSVSDMLSRPKPWSKLTQKGREPFIRMQLWLNG [V3A] | -0.133 ± 0.061
QEFDTIELTRQVKEKLAKNGICQRIFGEKVLGLSQGSVSDMLSRPKPWSKLTQKGREPFIRMQLWLNG [V3F] | -0.063 ± 0.073
QEKDTIELTRQVKEKLAKNGICQRIFGEKVLGLSQGSVSDMLSRPKPWSKLTQKGREPFIRMQLWLNG [V3K] | -0.136 ± 0.098
QEDDTIELTRQVKEKLAKNGICQRIFGEKVLGLSQGSVSDMLSRPKPWSKLTQKGREPFIRMQLWLNG [V3D] | -0.174 ± 0.094
QEEDTIELTRQVKEKLAKNGICQRIFGEKVLGLSQGSVSDMLSRPKPWSKLTQKGREPFIRMQLWLNG [V3E] | -0.037 ± 0.093
QEWDTIELTRQVKEKLAKNGICQRIFGEKVLGLSQGSVSDMLSRPKPWSKLTQKGREPFIRMQLWLNG [V3W] | -0.528 ± 0.085

Source: the Human Domainome abundance scans (Beltran et al. 2025)
